Data: the supplement of paper PMC9732359
± gives the uncertainty stated by the source.

Experiment: protein stability index of a GFP-peptide fusion (yeast GPS) (PSI 1-4); higher = more stable; sorted into four equal gates, so the index is relative within each strain
Method in brief: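 Plasmids isolated from each sorting gate were PCR-amplified and Illumina-sequenced, and barcodes assigned the reads to strains. The gates, four of equal size, were set by GFP/Cherry fluorescence ratio on mid-log cultures in leucine-free medium. These cultures were yeast carrying a pooled library of tiled 17-residue yeast protein peptides fused downstream of GFP on a plasmid that also expresses Cherry. The protein stability index is the sum of every gate's read frequency times its gate number.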

Sequence	protein stability index (doa10∆)	protein stability index (pdr5∆)	protein stability index (san1∆)	protein stability index (ubr1∆)
TTPEKPEETPLEELAET [FAS2]	3.28 ± 0.076	3.09 ± 0.074	3.28 ± 0.051	3.5 ± 0.051
VLSINPDMYERKVENIR [MED7]	2.81 ± 0.08	3.03 ± 0.086	2.79 ± 0.052	2.79 ± 0.062
KRAEKAARKAEKAKSAG [RPL24B]	2.91 ± 0.073	2.48 ± 0.051	1.55 ± 0.087	2.92 ± 0.04
VLYYRDARSSRNFSLAI [PRE4]	2.85 ± 0.14	2.63 ± 0.12	1.99 ± 0.15	2.39 ± 0.085
PSSEKPNIRTMSGTTKR [SSN2]		2.45 ± 0.27		
IAGTFNVGKPDQSIASG [YOR098C/NUP1]	3.14 ± 0.1	2.68 ± 0.18	2.96 ± 0.063	2.98 ± 0.082
KRPGKLSDYIPGPYPNE [CYT1]	3.19 ± 0.059	3.22 ± 0.06	3.24 ± 0.041	3.16 ± 0.037
NSADVDMDAQGRSDSNT [YGL100W/SEH1]	3.45 ± 0.096	3.39 ± 0.088	3.1 ± 0.12	3.29 ± 0.061
GLSIHPTQITQYTQRLS [SRP68]	2.09 ± 0.063	1.93 ± 0.066	1.92 ± 0.071	2.13 ± 0.071
LEHDVEYRPFSKKVLEC [DIS3]	3.4 ± 0.18	3.6 ± 0.1	3.48 ± 0.07	3.37 ± 0.073
LFHSCTRIQYVDFACCT [GRR1]	2.56 ± 0.12	2.44 ± 0.067	2.2 ± 0.075	2.21 ± 0.063
ISSLMFDEEFDPFKTSS [IRR1]			2.7 ± 0.14	2.99 ± 0.26
LNFSTTAPANTTDANGS [MED2]	2.06 ± 0.061	2.08 ± 0.051	2.58 ± 0.056	2.78 ± 0.057
SVTAQVYKIALRLTEQK [RPC82]	1.79 ± 0.15	2.19 ± 0.14	2.22 ± 0.19	
LRLPFSAAMSIDKLSDV [PRP8]	2.43 ± 0.053	2.42 ± 0.038	2.24 ± 0.048	2.3 ± 0.033
YPNEVLKFNHGNYSHLM [REC8]	2.7 ± 0.13	2.65 ± 0.059	2.76 ± 0.059	2.88 ± 0.061
FYGVLDQGNGWLYVYET [RPN6]	2.9 ± 0.095	2.65 ± 0.073	1.9 ± 0.095	3.02 ± 0.071
FVFQTVFDTAITSWYEN [QCR9]	1.66 ± 0.054	1.6 ± 0.039	1.74 ± 0.077	1.97 ± 0.044
TNDDSIKNLTVQLSPSN [RGR1]	2.8 ± 0.074	2.79 ± 0.059	2.56 ± 0.056	2.58 ± 0.05
LETLFNRWHSESWANQL [FAS2]	2.81 ± 0.055	2.89 ± 0.076	2.87 ± 0.055	3.02 ± 0.056
KRLLGTAFKSSPFGGSS [RPS23A]	2.22 ± 0.043	2.61 ± 0.045	2.33 ± 0.055	2.23 ± 0.034
TESITHDSSNGLFQVLH [NUT1]	3.12 ± 0.073	3.22 ± 0.061	2.99 ± 0.058	3.17 ± 0.041
IDEPIKSIMDGIHDGHI [FAS1]	1.97 ± 0.044	1.87 ± 0.059	1.52 ± 0.094	1.57 ± 0.038
SPPIIDLFSNNNYNSRI [MED1]	2.86 ± 0.071	2.92 ± 0.076	2.86 ± 0.062	2.94 ± 0.056
FEDQVTNILTKVDINAD [PRP28]	3.19 ± 0.2		3.2 ± 0.18	
IVPGTYIQERNPSQRPQ [RPS10B]	3.01 ± 0.055	3.07 ± 0.045	3.08 ± 0.037	3.26 ± 0.038
VKARHGGCDYIFSLLTG [CYT1]	2.88 ± 0.1	3.02 ± 0.12	2.61 ± 0.086	2.72 ± 0.053
YQELAYRATSLDPSLRA [YML031W/NDC1]	2.8 ± 0.049	2.89 ± 0.041	2.83 ± 0.036	2.61 ± 0.031
